Test results from PMC2193072 (The Journal of Experimental Medicine, 1999).
Like-named read-outs stand apart in the source and are kept apart here. Each block holds one molecule with its values, some of them ahead of it. No end group written: not given here.

How the values were obtained:
[1] = molecular target: soluble I-A^g7 (I-Aα–Fos / I-Aβ–Jun heterodimer) (mouse (NOD) | not stated); experiment: antibody-capture peptide binding assay with europium-streptavidin
[2] = molecular target: soluble I-A^g7 (I-Aα–Fos / I-Aβ–Jun heterodimer) (mouse (NOD) | not stated); experiment: as above; remark: listed apart in the source
[3] = molecular target: soluble I-A^g7 (I-Aα–Fos / I-Aβ–Jun heterodimer) (mouse (NOD) | not stated); experiment: peptide dissociation assay
[4] = molecular target: soluble I-A^g7 (I-Aα–Fos / I-Aβ–Jun heterodimer) (mouse (NOD) | not stated); experiment: peptide dissociation assay; remark: listed apart in the source
[5] = system: I-A^g7; type: binding, NOD mice; conditions: biotinylated peptide, pH 5.0, 37°C
[6] = system: I-A^g7; type: binding, NOD mice; conditions: pH 5, competitor 8 nM–25 μM vs biotinylated transferrin peptide (1 μM)

Molecule: Murine CLIP analogue with V at position 98 (P9), unlabeled (from UniProt P04441 86-100) (peptide)
IC50 [1]: 50 µM

Molecule: Murine serum albumin (560–574) peptide, biotinylated
dissociation time (t1/2) [3]: > 72 h
dissociation time (t1/2) [4]: > 72 h

Molecule: Murine transferrin (55–68) peptide, biotinylated
dissociation time (t1/2) [3]: 45 h
dissociation time (t1/2) [4]: > 72 h

Molecule: EEVDMTPADALDDFD [HSV-2 VP16 (430–444)]
Binding to I-A^g7 in direct binding assay (in words), pH 5.0 [5]: little binding
Binding to I-A^g7 in competition assay (in words) [6]: competed for binding of the biotinylated transferrin peptide at high peptide concentrations

Molecule: Murine CLIP (86–100) peptide, biotinylated
dissociation time (t1/2) [3]: 1 h

B1: Murine CLIP analogue with F at position 98 (P9), unlabeled (peptide)
peptide: PVSQMRMATPLLFRP
IC50 [1]: 80 µM
IC50 [2]: 50 µM

B2: Murine CLIP analogue with P at position 98 (P9), unlabeled (peptide)
peptide: PVSQMRMATPLLPRP
IC50 [1]: > 125 µM
IC50 [2]: > 125 µM

B3: Murine CLIP analogue with R at position 98 (P9), unlabeled (peptide)
peptide: PVSQMRMATPLLRRP
IC50 [1]: > 125 µM
IC50 [2]: > 125 µM

B5: Murine CLIP analogue with N at position 98 (P9), unlabeled (peptide)
peptide: PVSQMRMATPLLNRP
IC50 [1]: 80 µM
IC50 [2]: 125 µM

B7: Murine CLIP analogue with K at position 98 (P9), unlabeled (peptide)
peptide: PVSQMRMATPLLKRP
IC50 [1]: > 125 µM
IC50 [2]: > 125 µM

B8: Human HSP60 (441–460) peptide, biotinylated (peptide)
peptide: GCALLRCIPALDSLTPANED
modifications: cysteine pairing not given here; also: biotinylated, position not given here
dissociation time (t1/2) [3]: 14 h
dissociation time (t1/2) [4]: 25 h

B9: Murine CLIP analogue with I at position 98 (P9), unlabeled (peptide)
peptide: PVSQMRMATPLLIRP
IC50 [1]: > 125 µM
IC50 [2]: > 125 µM

B11: Murine CLIP analogue with Y at position 98 (P9), unlabeled (peptide)
peptide: PVSQMRMATPLLYRP
IC50 [1]: > 125 µM
IC50 [2]: 60 µM

B13: Murine CLIP analogue with W at position 98 (P9), unlabeled (peptide)
peptide: PVSQMRMATPLLWRP
IC50 [1]: 80 µM
IC50 [2]: > 125 µM

B16: Murine CLIP analogue with T at position 98 (P9), unlabeled (peptide)
peptide: PVSQMRMATPLLTRP
IC50 [1]: > 125 µM
IC50 [2]: 40 µM

B17: Murine CLIP 98D analogue, biotinylated (peptide)
peptide: PVSQMRMATPLLDRP
modifications: also: biotinylated, position not given here
dissociation time (t1/2) [3]: 23 h
dissociation time (t1/2) [4]: 70 h

Now from value to molecule:

IC50 [1]: 50 µM
IC50 [2]: > 125 µM
Molecule: Murine CLIP (86–100) peptide, unlabeled

IC50 [1]: 40 µM
B4: Murine CLIP analogue with S at position 98 (P9), unlabeled (peptide)
peptide: PVSQMRMATPLLSRP

IC50 [1]: 4 µM
IC50 [2]: > 125 µM
B6: Murine CLIP analogue with H at position 98 (P9), unlabeled (peptide)
peptide: PVSQMRMATPLLHRP

IC50 [1]: 2 µM
IC50 [2]: 15 µM
B10: Murine CLIP analogue with A at position 98 (P9), unlabeled (peptide)
peptide: PVSQMRMATPLLARP

IC50 [1]: 25 µM
IC50 [2]: > 125 µM
B12: Murine CLIP analogue with Q at position 98 (P9), unlabeled (peptide)
peptide: PVSQMRMATPLLQRP

IC50 [1]: 40 µM
IC50 [2]: > 125 µM
B14: Murine CLIP analogue with L at position 98 (P9), unlabeled (peptide)
peptide: PVSQMRMATPLLLRP

IC50 [1]: 10 µM
IC50 [2]: > 125 µM
B15: Murine CLIP analogue with G at position 98 (P9), unlabeled (peptide)
peptide: PVSQMRMATPLLGRP

IC50 [1]: 40 µM
B18: Murine CLIP analogue with C at position 98 (P9), unlabeled (peptide)
peptide: PVSQMRMATPLLCRP
